IC50 and response data for four substances are collected here from paper PMC2816707.

In test [1] the target is Recombinant human VEGF165 (human) (UniProt P15692). The test can be described thus: ELISA; inhibition of VEGF/VEGFR-2 interaction.
A further test addresses Bevacizumab. Put plainly: ELISA. The settings on record: point at the highest antibody concentration, about 13.3 nM (read from x axis); VEGF captured on ELISA plate; parent: est. 0.86; read off a plot. On the technique in general: An ELISA detects its analyte on a solid surface through an enzyme-linked reagent.
The target of a further test is humanized EBV321. The test can be described thus: ELISA. The settings on record: point at the highest antibody concentration, about 13.3 nM (read from x axis); VEGF captured on ELISA plate; parent: est. 0.66; read off a plot.

Sequence of rabbit IgG Fc-hVEGF (human VEGF165) fusion protein, wild type (from UniProt P15692-4) G88A; Q89A (P15692 whole entry, looked up, stated change not applied, the tested form may be a part): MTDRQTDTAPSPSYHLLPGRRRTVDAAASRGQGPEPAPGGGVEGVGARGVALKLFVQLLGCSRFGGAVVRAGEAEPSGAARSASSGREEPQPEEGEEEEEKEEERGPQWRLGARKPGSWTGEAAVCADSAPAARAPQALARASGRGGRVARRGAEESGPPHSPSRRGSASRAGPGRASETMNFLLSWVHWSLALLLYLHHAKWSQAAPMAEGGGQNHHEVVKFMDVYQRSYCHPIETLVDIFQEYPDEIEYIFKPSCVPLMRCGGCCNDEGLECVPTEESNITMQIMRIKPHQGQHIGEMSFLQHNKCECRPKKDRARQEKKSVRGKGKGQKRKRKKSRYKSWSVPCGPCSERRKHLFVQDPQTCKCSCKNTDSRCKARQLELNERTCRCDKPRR
Sequence of rabbit IgG Fc-hVEGF (human VEGF165) fusion protein, wild type (from UniProt P15692-4) G88A (P15692 whole entry, looked up, stated change not applied, the tested form may be a part): as above
Sequence of rabbit IgG Fc-hVEGF (human VEGF165) fusion protein, wild type (from UniProt P15692-4) I46A (P15692 whole entry, looked up, stated change not applied, the tested form may be a part): as above
Sequence of Recombinant human VEGF165 (human) (P15692 other isoform, or with tags, fused parts or gaps): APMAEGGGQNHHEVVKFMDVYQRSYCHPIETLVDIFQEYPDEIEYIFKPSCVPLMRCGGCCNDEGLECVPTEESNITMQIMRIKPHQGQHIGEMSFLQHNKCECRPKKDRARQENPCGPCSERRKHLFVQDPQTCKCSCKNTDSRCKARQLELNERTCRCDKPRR

Take Bevacizumab: in test [1], the IC50 (in general, the concentration that inhibits the measured activity by half) stood at 0.893 nM.

Take “rabbit IgG Fc-hVEGF (human VEGF165) fusion protein, wild type (from UniProt P15692-4) G88A”: in the test with Bevacizumab, the response was 0.57 OD (405nm). Consider “rabbit IgG Fc-hVEGF (human VEGF165) fusion protein, wild type (from UniProt P15692-4) G88A; Q89A”, for which the values for the response with Bevacizumab and in the test with humanized EBV321 were 0.13 OD (405nm) and 0.76 OD (405nm), respectively. On to “rabbit IgG Fc-hVEGF (human VEGF165) fusion protein, wild type (from UniProt P15692-4) I46A”, for which the response with Bevacizumab is 0.88 OD (405nm).
